Source: article PMC6191154

Biological target: labelled Vip3Aa protoxin (MST) (Bacillus thuringiensis (strain Bt9816C))
Test: MST; 10 nM labelled Vip3Aa kept constant, Sf-SR-C protein fragments titrated 0.3 nM to 10 μM, 20 min at RT; 25 mM Hepes pH 7.5, 150 mM NaCl, 0.05% Tween-20; 25 °C; fitted to the Hill equation; three independent experiments

Row | Substance | Kd [nM]
1 | GST-SR-F-2 (Sf-SR-C aa 139-320, the MAM domain) (domain or fragment) | 463
2 | Sf-CCP (CCP domain of Sf-SR-C (aa 20-80) with a His-tag) (domain or fragment) | 2190
3 | extracellular sequence of Sf-SR-C (aa 20-558) with a glutathione-S-transferase tag (GST-SR-C-N) (domain or fragment) | 190
